Results reported in IntAct's records for PubMed 25910212.

B1: SWI/SNF-related matrix-associated actin-dependent regulator of chromatin subfamily A member 2 (Homo sapiens), P51531-1 (parent)
chain: MSTPTDPGAMPHPGPSPGPGPSPGPILGPSPGPGPSPGSVHSMMGPSPGPPSVSHPMPTMGSTDFPQEGMHQMHKPIDGIHDKGIVEDIHCGSMKGTGMRPPHPGMGPPQSPMDQHSQGYMSPHPSPLGAPEHVSSPMSGGGPTPPQMPPSQPGALIPGDPQAMSQPNRGPSPFSPVQLHQLRAQILAYKMLARGQPLPETLQLAVQGKRTLPGLQQQQQQQQQQQQQQQQQQQQQQQPQQQPPQPQTQQQQQPALVNYNRPSGPGPELSGPSTPQKLPVPAPGGRPSPAPPAAAQPPAAAVPGPSVPQPAPGQPSPVLQLQQKQSRISPIQKPQGLDPVEILQEREYRLQARIAHRIQELENLPGSLPPDLRTKATVELKALRLLNFQRQLRQEVVACMRRDTTLETALNSKAYKRSKRQTLREARMTEKLEKQQKIEQERKRRQKHQEYLNSILQHAKDFKEYHRSVAGKIQKLSKAVATWHANTEREQKKETERIEKERMRRLMAEDEEGYRKLIDQKKDRRLAYLLQQTDEYVANLTNLVWEHKQAQAAKEKKKRRRRKKKAEENAEGGESALGPDGEPIDESSQMSDLPVKVTHTETGKVLFGPEAPKASQLDAWLEMNPGYEVAPRSDSEESDSDYEEEDEEEESSRQETEEKILLDPNSEEVSEKDAKQIIETAKQDVDDEYSMQYSARGSQSYYTVAHAISERVEKQSALLINGTLKHYQLQGLEWMVSLYNNNLNGILADEMGLGKTIQTIALITYLMEHKRLNGPYLIIVPLSTLSNWTYEFDKWAPSVVKISYKGTPAMRRSLVPQLRSGKFNVLLTTYEYIIKDKHILAKIRWKYMIVDEGHRMKNHHCKLTQVLNTHYVAPRRILLTGTPLQNKLPELWALLNFLLPTIFKSCSTFEQWFNAPFAMTGERVDLNEEETILIIRRLHKVLRPFLLRRLKKEVESQLPEKVEYVIKCDMSALQKILYRHMQAKGILLTDGSEKDKKGKGGAKTLMNTIMQLRKICNHPYMFQHIEESFAEHLGYSNGVINGAELYRASGKFELLDRILPKLRATNHRVLLFCQMTSLMTIMEDYFAFRNFLYLRLDGTTKSEDRAALLKKFNEPGSQYFIFLLSTRAGGLGLNLQAADTVVIFDSDWNPHQDLQAQDRAHRIGQQNEVRVLRLCTVNSVEEKILAAAKYKLNVDQKVIQAGMFDQKSSSHERRAFLQAILEHEEENEEEDEVPDDETLNQMIARREEEFDLFMRMDMDRRREDARNPKRKPRLMEEDELPSWIIKDDAEVERLTCEEEEEKIFGRGSRQRRDVDYSDALTEKQWLRAIEDGNLEEMEEEVRLKKRKRRRNVDKDPAKEDVEKAKKRRGRPPAEKLSPNPPKLTKQMNAIIDTVINYKDRCNVEKVPSNSQLEIEGNSSGRQLSEVFIQLPSRKELPEYYELIRKPVDFKKIKERIRNHKYRSLGDLEKDVMLLCHNAQTFNLEGSQIYEDSIVLQSVFKSARQKIAKEEESEDESNEEEEEEDEEESESEAKSVKVKIKLNKKDDKGRDKGKGKKRPNRGKAKPVVSDFDSDEEQDEREQSEGSGTDDE
B2: Krev interaction trapped protein 1 (Homo sapiens), O00522 (parent)
chain: MGNPENIEDAYVAVIRPKNTASLNSREYRAKSYEILLHEVPIEGQKKKRKKVLLETKLQGNSEITQGILDYVVETTKPISPANQGIRGKRVVLMKKFPLDGEKMGREASLFIVPSVVKDNTKYTYTPGCPIFYCLQDIMRVCSESSTHFATLTARMLIALDKWLDERHAQSHFIPALFRPSPLERIKTNVINPAYATESGQTENSLHMGYSALEIKSKMLALEKADTCIYNPLFGSDLQYTNRVDKVVINPYFGLGAPDYSKIQIPKQEKWQRSMSSVTEDKERQWVDDFPLHRSACEGDSELLSRLLSERFSVNQLDSDHWAPIHYACWYGKVEATRILLEKGKCNPNLLNGQLSSPLHFAAGGGHAEIVQILLNHPETDRHITDQQGRSPLNICEENKQNNWEEAAKLLKEAINKPYEKVRIYRMDGSYRSVELKHGNNTTVQQIMEGMRLSQETQQYFTIWICSENLSLQLKPYHKPLQHVRDWPEILAELTNLDPQRETPQLFLRRDVRLPLEVEKQIEDPLAILILFDEARYNLLKGFYTAPDAKLITLASLLLQIVYGNYESKKHKQGFLNEENLKSIVPVTKLKSKAPHWTNRILHEYKNLSTSEGVSKEMHHLQRMFLQNCWEIPTYGAAFFTGQIFTKASPSNHKVIPVYVGVNIKGLHLLNMETKALLISLKYGCFMWQLGDTDTCFQIHSMENKMSFIVHTKQAGLVVKLLMKLNGQLMPTERNS
B3: Acetylcholine receptor subunit gamma (Homo sapiens), P07510-2 (parent)
chain: MHGGQGPLLLLLLLAVCLGAQGRNQEERLLADLMQNYDPNLRPAERDSDVVNVSLKLTLTNLISLNEREEALTTNVWIEMQWCDYRLRWDPRDYEGLWVLRVPSTMVWRPDIVLENKSQTYSTNEIDLQLSQEDGQTIEWIFIDPEAFTENGEWAIQHRPAKMLLDPAAPAQEAGHQKVVFYLLIQRKPLFYVINIIAPCVLISSVAILIHFLPAKAGGQKCTVAINVLLAQTVFLFLVAKKVPETSQAVPLISKYLTFLLVVTILIVVNAVVVLNVSLRSPHTHSMARGVRKVFLRLLPQLLRMHVRPLAPAAVQDTQSRLQNGSSGWSITTGEEVALCLPRSELLFQQWQRQGLVAAALEKLEKGPELGLSQFCGSLKQAAPAIQACVEACNLIACARHQQSHFDNGNEEWFLVGRVLDRVCFLAMLSLFICGTAGIFLMAHYNRVPALPFPGDPRPYLPSPD
partner: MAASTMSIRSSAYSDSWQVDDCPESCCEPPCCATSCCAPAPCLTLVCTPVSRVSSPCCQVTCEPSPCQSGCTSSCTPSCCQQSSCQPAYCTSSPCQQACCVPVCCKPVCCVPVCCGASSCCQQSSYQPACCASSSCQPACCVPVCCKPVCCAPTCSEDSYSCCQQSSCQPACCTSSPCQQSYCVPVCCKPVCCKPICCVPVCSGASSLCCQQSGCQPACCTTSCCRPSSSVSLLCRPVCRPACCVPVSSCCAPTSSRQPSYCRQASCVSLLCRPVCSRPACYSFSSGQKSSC
B4: Fibulin-5 (Homo sapiens), Q9UBX5 (parent)
chain: MPGIKRILTVTILALCLPSPGNAQAQCTNGFDLDRQSGQCLDIDECRTIPEACRGDMMCVNQNGGYLCIPRTNPVYRGPYSNPYSTPYSGPYPAAAPPLSAPNYPTISRPLICRFGYQMDESNQCVDVDECATDSHQCNPTQICINTEGGYTCSCTDGYWLLEGQCLDIDECRYGYCQQLCANVPGSYSCTCNPGFTLNEDGRSCQDVNECATENPCVQTCVNTYGSFICRCDPGYELEEDGVHCSDMDECSFSEFLCQHECVNQPGTYFCSCPPGYILLDDNRSCQDINECEHRNHTCNLQQTCYNLQGGFKCIDPIRCEEPYLRISDNRCMCPAENPGCRDQPFTILYRDMDVVSGRSVPADIFQMQATTRYPGAYYIFQIKSGNEGREFYMRQTGPISATLVMTRPIKGPREIQLDLEMITVNTVINFRGSSVIRLRIYVSQYPF
partner: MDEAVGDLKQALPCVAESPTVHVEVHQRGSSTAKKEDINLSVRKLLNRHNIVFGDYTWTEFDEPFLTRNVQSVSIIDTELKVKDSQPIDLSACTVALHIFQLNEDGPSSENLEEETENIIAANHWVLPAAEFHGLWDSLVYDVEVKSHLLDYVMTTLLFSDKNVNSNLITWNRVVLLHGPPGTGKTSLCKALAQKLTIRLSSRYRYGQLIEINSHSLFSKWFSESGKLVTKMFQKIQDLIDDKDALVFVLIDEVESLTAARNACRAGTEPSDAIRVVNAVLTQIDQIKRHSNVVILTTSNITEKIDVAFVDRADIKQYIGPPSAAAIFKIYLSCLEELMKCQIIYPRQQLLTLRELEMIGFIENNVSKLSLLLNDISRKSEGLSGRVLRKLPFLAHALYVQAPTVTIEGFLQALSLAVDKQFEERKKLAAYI
B5: Keratin, type II cytoskeletal 6A (Homo sapiens), P02538 (parent)
chain: MASTSTTIRSHSSSRRGFSANSARLPGVSRSGFSSVSVSRSRGSGGLGGACGGAGFGSRSLYGLGGSKRISIGGGSCAISGGYGSRAGGSYGFGGAGSGFGFGGGAGIGFGLGGGAGLAGGFGGPGFPVCPPGGIQEVTVNQSLLTPLNLQIDPTIQRVRAEEREQIKTLNNKFASFIDKVRFLEQQNKVLETKWTLLQEQGTKTVRQNLEPLFEQYINNLRRQLDSIVGERGRLDSELRGMQDLVEDFKNKYEDEINKRTAAENEFVTLKKDVDAAYMNKVELQAKADTLTDEINFLRALYDAELSQMQTHISDTSVVLSMDNNRNLDLDSIIAEVKAQYEEIAQRSRAEAESWYQTKYEELQVTAGRHGDDLRNTKQEIAEINRMIQRLRSEIDHVKKQCANLQAAIADAEQRGEMALKDAKNKLEGLEDALQKAKQDLARLLKEYQELMNVKLALDVEIATYRKLLEGEECRLNGEGVGQVNISVVQSTVSSGYGGASGVGSGLGLGGGSSYSYGSGLGVGGGFSSSSGRAIGGGLSSVGGGSSTIKYTTTSSSSRKSYKH
partner: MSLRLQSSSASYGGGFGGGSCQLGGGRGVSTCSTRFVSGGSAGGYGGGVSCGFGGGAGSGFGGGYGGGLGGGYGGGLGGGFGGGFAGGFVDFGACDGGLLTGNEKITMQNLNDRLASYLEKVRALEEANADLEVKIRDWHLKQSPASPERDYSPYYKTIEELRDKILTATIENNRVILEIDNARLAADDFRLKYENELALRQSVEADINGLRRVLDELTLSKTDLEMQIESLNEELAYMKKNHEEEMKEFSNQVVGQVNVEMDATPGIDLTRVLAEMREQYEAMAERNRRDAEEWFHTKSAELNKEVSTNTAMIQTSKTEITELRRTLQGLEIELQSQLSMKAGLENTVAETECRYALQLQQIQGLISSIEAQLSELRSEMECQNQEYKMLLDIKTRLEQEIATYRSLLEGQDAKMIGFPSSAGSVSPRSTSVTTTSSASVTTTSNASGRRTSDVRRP
B6: Carbonic anhydrase-related protein (Homo sapiens), P35219 (parent)
chain: MADLSFIEDTVAFPEKEEDEEEEEEGVEWGYEEGVEWGLVFPDANGEYQSPINLNSREARYDPSLLDVRLSPNYVVCRDCEVTNDGHTIQVILKSKSVLSGGPLPQGHEFELYEVRFHWGRENQRGSEHTVNFKAFPMELHLIHWNSTLFGSIDEAVGKPHGIAIIALFVQIGKEHVGLKAVTEILQDIQYKGKSKTIPCFNPNTLLPDPLLRDYWVYEGSLTIPPCSEGVTWILFRYPLTISQLQIEEFRRLRTHVKGAELVEGCDGILGDNFRPTQPLSDRVIRAAFQ
partner: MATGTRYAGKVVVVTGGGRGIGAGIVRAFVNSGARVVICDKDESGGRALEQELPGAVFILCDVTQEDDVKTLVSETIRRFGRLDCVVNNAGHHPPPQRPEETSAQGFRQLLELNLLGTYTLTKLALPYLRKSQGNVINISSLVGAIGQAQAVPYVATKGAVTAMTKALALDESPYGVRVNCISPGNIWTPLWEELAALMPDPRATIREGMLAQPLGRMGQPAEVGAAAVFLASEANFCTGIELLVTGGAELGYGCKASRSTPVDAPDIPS
B7: Keratin, type II cytoskeletal 2 epidermal (Homo sapiens), P35908 (parent)
chain: MSCQISCKSRGRGGGGGGFRGFSSGSAVVSGGSRRSTSSFSCLSRHGGGGGGFGGGGFGSRSLVGLGGTKSISISVAGGGGGFGAAGGFGGRGGGFGGGSSFGGGSGFSGGGFGGGGFGGGRFGGFGGPGGVGGLGGPGGFGPGGYPGGIHEVSVNQSLLQPLNVKVDPEIQNVKAQEREQIKTLNNKFASFIDKVRFLEQQNQVLQTKWELLQQMNVGTRPINLEPIFQGYIDSLKRYLDGLTAERTSQNSELNNMQDLVEDYKKKYEDEINKRTAAENDFVTLKKDVDNAYMIKVELQSKVDLLNQEIEFLKVLYDAEISQIHQSVTDTNVILSMDNSRNLDLDSIIAEVKAQYEEIAQRSKEEAEALYHSKYEELQVTVGRHGDSLKEIKIEISELNRVIQRLQGEIAHVKKQCKNVQDAIADAEQRGEHALKDARNKLNDLEEALQQAKEDLARLLRDYQELMNVKLALDVEIATYRKLLEGEECRMSGDLSSNVTVSVTSSTISSNVASKAAFGGSGGRGSSSGGGYSSGSSSYGSGGRQSGSRGGSGGGGSISGGGYGSGGGSGGRYGSGGGSKGGSISGGGYGSGGGKHSSGGGSRGGSSSGGGYGSGGGGSSSVKGSSGEAFGSSVTFSFR
partner: B5 partner

Variants of: B1
Conditions: with sdcb1_human SDCBP

effect of a mutation on the interaction	Variant
with no effect	D1546E

Variants of: B1
Conditions: with sdcb1_human SDCBP
Remark: another data set of the same source

effect of a mutation on the interaction	Variant
with no effect	D1546E

Variants of: B2
Conditions: with ccm2_human CCM2, Q9BSQ5
Chain of ccm2_human CCM2, Q9BSQ5 (Q9BSQ5 whole entry): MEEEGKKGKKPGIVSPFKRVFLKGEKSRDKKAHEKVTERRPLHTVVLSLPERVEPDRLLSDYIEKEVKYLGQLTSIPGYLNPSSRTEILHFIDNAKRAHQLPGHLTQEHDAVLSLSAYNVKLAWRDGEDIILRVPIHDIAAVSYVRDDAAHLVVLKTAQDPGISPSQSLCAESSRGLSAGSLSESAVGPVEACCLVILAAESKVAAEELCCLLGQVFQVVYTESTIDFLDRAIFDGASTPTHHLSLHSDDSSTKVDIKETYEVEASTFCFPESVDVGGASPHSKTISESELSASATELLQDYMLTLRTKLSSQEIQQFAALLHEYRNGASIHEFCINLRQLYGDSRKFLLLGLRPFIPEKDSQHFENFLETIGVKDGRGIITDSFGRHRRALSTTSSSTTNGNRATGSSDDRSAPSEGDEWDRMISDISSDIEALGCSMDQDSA

effect of a mutation on the interaction	Variant
with no effect	D137G

Variants of: B3
Conditions: with kr109_human KRTAP10-9, P60411

effect of a mutation on the interaction	Variant
disrupting interaction strength	R187C
disrupting interaction strength	R86C
disrupting interaction strength	V107G

Variants of: B4
Conditions: with pch2_human TRIP13, Q15645

effect of a mutation on the interaction	Variant
disrupting interaction strength	V60L

Variants of: B5
Conditions: with KRT13, P13646

Variant	effect of a mutation on the interaction
N21S	with no effect
F174V	with no effect
N171K	with no effect

Further lines, results first:

effect of a mutation on the interaction	Variant
with no effect	V523F
with no effect	A463P
with no effect	T552S
with no effect	F249L
with no effect	I462S

Variants of: B6
Conditions: with dhb14_human HSD17B14, Q9BPX1

effect of a mutation on the interaction	Variant
disrupting interaction strength	S100P

Variants of: B7
Conditions: with KRT13, P13646

Variant	effect of a mutation on the interaction
N186K	with no effect
G219D	with no effect

The next lines start with the values.

effect of a mutation on the interaction	Variant
with no effect	L484P
disrupting interaction strength	I477N
